Test results published in patent US20050054106.

Target: T1, PhiC31 integrase (Streptomyces phage PhiC31) (UniProt Q9T221)
T1 sequence: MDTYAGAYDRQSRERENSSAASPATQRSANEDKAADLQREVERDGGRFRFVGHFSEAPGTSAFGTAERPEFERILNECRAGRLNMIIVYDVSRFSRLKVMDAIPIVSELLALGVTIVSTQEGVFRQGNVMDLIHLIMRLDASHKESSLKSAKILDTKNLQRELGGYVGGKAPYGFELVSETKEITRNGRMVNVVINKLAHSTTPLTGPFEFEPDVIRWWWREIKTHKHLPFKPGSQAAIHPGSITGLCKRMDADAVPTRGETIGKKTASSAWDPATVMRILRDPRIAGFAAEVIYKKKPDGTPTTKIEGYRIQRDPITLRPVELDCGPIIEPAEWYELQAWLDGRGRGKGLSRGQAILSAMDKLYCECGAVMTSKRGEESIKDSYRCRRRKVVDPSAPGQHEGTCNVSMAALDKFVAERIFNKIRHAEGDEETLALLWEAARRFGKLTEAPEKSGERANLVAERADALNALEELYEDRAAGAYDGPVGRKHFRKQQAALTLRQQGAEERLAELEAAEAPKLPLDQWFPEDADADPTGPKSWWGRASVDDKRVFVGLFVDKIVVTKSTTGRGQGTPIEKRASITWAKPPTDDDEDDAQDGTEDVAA
Experiment: cell_activity
Conditions: S. pombe FY527attP, pLT45+pLT43; 63 without integrase, 120 with thiamine repression

attB (pLT45, 500 bp fragment) ; attP 84 bp (pLT44)
activity (transformants per 10^7 cells): 1100
